The source of these data is patent US10494417B2, “Peptide inhibitors of BCR-ABL oligomerization” (University of Utah Research Foundation, priority 2014, dated 2019).

“Also recorded” adds a separate entry of the source. Some results are limits rather than exact numbers.

For assay [1], the system named is K562 cells. The experiment in a line: Colony forming assay of protein-treated K562 cells. It is filed as cell-based, human. The settings on record: proteins 30 μM, imatinib 1.0 μM; colonies counted after 7 days. Here is the method:
This experiment was carried out as before with the modifications noted below. […] 1×10^3 cells (in 1.1 mL) were seeded in a 6-well plate (CellStar), in duplicate for each treatment. 7 days after seeding cells, colonies were counted in a […] area per well. Independent treatments were tested 3 times in duplicate (n=3). All reagents for the CFA were purchased from Stem Cell Technologies, Vancouver, BC, Canada.

The subject of the next assay is parental Ba/F3 cells. In words: Colony forming assay of transfected parental Ba/F3 cells. It is filed as cell-based, mouse. The settings on record: CCmut3 vs EV. On the procedure: (§1) Both EGFP and EGFP-CC^mut3 were transfected into separate groups of cells on day 0. One day following transfection, 1.0×10^6 cells per treatment group were collected and re-suspended in 1.0 mL of PBS. Through serial dilutions, 1.0×10^3 cells in IMDM (Isocove's modified Dulbecco's media) with 2% FBS were seeded into methylcellulose medium in the absence of cytokines (MethoCult H4230 for K562 cells and MethoCult M3234 for p210 and p210-T315I cells) or in the presence of cytokines (MethoCult GF M3434 for parental Ba/F3 cells). Ponatinib was then added in the correct molar amounts (0, 100 pM, 1 nM, or 10 nM) to the methylcellulose medium. Colonies formed were counted after 7 days of incubation. All reagents were purchased from Stem Cell Technologies, Vancouver, BC, Canada. Assay was run three separate times (n=3) in duplicate.
Following selection of transfected cells by cell sorting, viable cells were enumerated and seeded into methylcellulose as described previously (Dixon, A. S., et al. (2011) J. Biol. Chem. 286, 27751-27760). Briefly, mCherry-positive Ba/F3 cells were re-suspended in IMDM with 2% FBS (Stem Cell Technologies) at a concentration of 10,000 cells/mL. […] Colonies were counted 7 days later in an area of […] per dish. […]

The target of a further assay is T1, mCherry-tagged Bcr-Abl (Homo sapiens, UniProt P00519+P11274).
T1 construct: expressed in transfected cells; host or cells: Cos-7
T1 sequence (P11274 1-72 limits assumed): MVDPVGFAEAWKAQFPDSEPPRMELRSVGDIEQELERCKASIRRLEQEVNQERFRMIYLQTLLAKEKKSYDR
The experiment in a line: Colocalization analysis in Cos-7 cells. It is filed as cell-based. The settings on record: EGFP-tagged CC^mut3 co-transfected with mCherry-tagged Bcr-Abl. On the procedure: Next, the ability of CC^mut3 to bind to BCR-ABL in live cells was analyzed (FIG. 8B). Colocalization analysis was performed by co-transfecting mCherry-tagged Bcr-Abl and EGFP-tagged CC^mut3 into Cos-7 cells.

A further assay deals with Ba/F3-p210-T315I cells. The experiment in a line: Colony forming assay of Ba/F3 BCR-ABL1 T315I cells. Format: cell-based, mouse. The settings on record: for colony formation, in words: CCmut3 gene delivery (transfection; b502 lentiviral infection) vs EV; for reduction in CFCs / colony forming ability: CCmut3 vs EV. On the procedure: as §1
Briefly, mCherry-positive Ba/F3 cells were re-suspended in IMDM with 2% FBS (Stem Cell Technologies) at a concentration of 10,000 cells/mL. Three hundred microliters of this dilution was added to 3 mL of Methocult media (M3434—Ba/F3 p210 wild-type and mutant lines or M3234—Ba/F3 parental, Stem Cell Technologies). Approximately 1100 cells, or 1.2 mL, were seeded per dish in duplicate for each transfection. Colonies were counted 7 days later in an area of 100 μm^2 per dish.
All cells were plated with or without the indicated TKI in three or more independent experiments. Plates were incubated at 37° C. in a 5% CO2 humidified incubator. Colonies were counted 7-14 days later in an area of 50 μm2 per dish using an inverted microscope.

In assay [2] the test system is Ba/F3 cells expressing BCR-ABL1E255V/T315I. In words: Annexin V/7-AAD apoptosis assay in Ba/F3 BCR-ABL1 E255V/T315I cells. It is filed as cell-based, mouse. The settings on record: 72 h, CCmut3 vs EV. On the procedure:
For analysis of apoptosis and cell death, cells were pelleted and resuspended in Annexin V-binding buffer (BD Biosciences), stained with anti-Annexin V-APC (BD Biosciences or Life Technologies) and 7-AAD (BD Biosciences or Life Technologies) and analyzed on a BD FACSCanto flow cytometer. In addition to the APC and 7-AAD channels, GFP- and mCherry-positive cells were also recorded.
For analysis of apoptosis and necrotic cell death, cells were pelleted and resuspended in Annexin V-binding buffer (BD Biosciences), stained with anti-Annexin V-APC and 7-AAD (BD Biosciences or Life Technologies) and analyzed on a BD FACSCanto flow cytometer. In addition to the APC and 7-AAD channels, GFP- and mCherry-positive cells were also recorded.

In assay [3] the test system is K562 cells. In words: Cell proliferation (trypan blue) of protein-treated K562 cells. The settings on record: proteins 30 μM or imatinib. Format: cell-based, human. On the procedure:
Independent treatments were tested three times (n=3).

B1: CCmut3: modified Bcr-Abl coiled-coil domain (residues 1-72) with mutations C38A, K39E, S41R, L45D, E48R, Q60E (protein)
chain: MVDPVGFAEAWKAQFPDSEPPRMELRSVGDIEQELERAEARIRRDEQRVNQERFRMIYLETLLAKEKKSYDR
B1: the “colony forming (transformative ability)” value in the assay on K562 cells [1] is “ineffective at reducing cell proliferation and colony forming compared to untreated cells”. For the same molecule, the “colony formation, in words” value in the assay on parental Ba/F3 cells is “not affected; also recorded: no effect on parental Ba/F3 controls”; in the assay on parental Ba/F3 cells (listed as CC^mut3), “not affected; also recorded: no difference between treatment groups”; in the assay with Ba/F3-p210-T315I cells, “significantly fewer colonies per unit area”; in the assay on Ba/F3-p210-T315I cells (listed as CC^mut3), “Inhibition in colony formation”. The “intracellular colocalization with BCR-ABL (Costes' coefficient)” value in the assay with mCherry-tagged Bcr-Abl is reported as “intracellular colocalization”. Also, the “reduction of transformative ability compared to EGFP control” value in the assay on Ba/F3-p210-T315I cells (CC^mut3 alone, Ba/F3-p210-T315I) is roughly 40%. For the same molecule, the “reduction in CFCs / colony forming ability” value with Ba/F3-p210-T315I cells is on record as greater than 10 fold; in the assay with Ba/F3-p210-T315I cells (listed as CC^mut3), “more than 10 fold”. The results for the “apoptosis, in words” value in assay [2] and in assay [2] (listed as CC^mut3) were “Enhanced apoptosis; also recorded: effectively induced apoptosis” and “significantly more apoptotic; also recorded: sensitive”, respectively. The cell proliferation result in the assay on K562 cells [3] is “ineffective at reducing cell proliferation and colony forming compared to untreated cells”.
